Reference: patent US7186551B1, “3′-phosphoadenosine -5′-phosphosulfate synthetase 2 (PAPSS2) sequence variants” (Mayo Foundation for Medical Education and Research, priority 2001, dated 2007)

Test system: PAPSS2
Experiment: Substrate kinetic studies of recombinant PAPSS2 with ATP and Na2SO4
Type: biochemical, human
Description: To estimate apparent Km values of PAPSS2 for the two reaction cosubstrates, a series of ATP (0.125–4 mM) and Na2SO4 (0.125–16 mM) concentrations were tested with the recombinant allozymes. When ATP was the varied substrate, the concentration of Na2SO4 was 4 mM, and when Na2SO4 was the varied substrate, the concentration of ATP was 1 mM. Blanks for each substrate concentration were included by assaying COS-1 cell cytosol after transfection with empty vector.
Data Analysis: Apparent Km values were calculated by using the method of Wilkinson with a computer program written by Cleland. Wilkinson, Biochem. J., 80:324–332 (1961); and Cleland, Nature, 198:[…] (1963). Statistical comparisons of data were performed by ANOVA with the StatView program, version 4.5 (Abacus Concepts, Inc., Berkeley, Calif.). Apparent Km, S50 and Vmax values for the wild-type and variant PAPSS2 allozymes were compared by the use of unpaired Student's t-test.
Alterations in amino acid sequence can alter enzyme substrate affinity and/or catalytic efficiency. Decreased activity of the Val291Met allozyme—without a significant alteration in level of enzyme protein—could have resulted from a change in substrate kinetics. Therefore, a series of ATP (0.125–4 mM) and Na2SO4 (0.125–16 mM) concentrations were used to estimate apparent Km values for recombinant wild type PAPSS2 and for the Val291Met variant allozyme. […] ATP concentrations at which 50% maximal velocity was achieved (S50 values) were 0.70 and 0.95 mM for the wild type and variant allozymes, respectively (Table 4). In both cases, the Hill coefficient was greater than 2, […]. In contrast, substrate kinetics of both allozymes for Na2SO4 conformed to Michaelis-Menten predictions (FIG. 5B). […] In summary, decreased activity for the Val1291Met variant appeared to result from an alteration in substrate kinetics, while decreased activity for the Glu10Lys allozyme, in contrast, resulted primarily from a decrease in the quantity of enzyme protein. Because the Val291Met variant was encoded by a construct that contained the most common PAPSS2 nonsynonymous cSNP, these observations could have functional implications for the sulfate conjugation of both endogenous and/or exogenous compounds.

[1] = ATP varied 0.125-4 mM, Na2SO4 4 mM, listed as Wild Type

B1: wild type: reference human PAPSS2 polypeptide (SEQ ID NO:9, GenBank AF091242), recombinantly expressed in COS-1 cells (protein, listed as Homo sapiens)
chain: MSGIKKQKTENQQKSTNVVYQAHHVSRNKRGQVVGTRGGFRGCTVWLTGLSGAGKTTISFALEEYLVSHAIPCYSLDGDNVRHGLNRNLGFSPGDREENIRRIAEVAKLFADAGLVCITSFISPFAKDRENARKIHESAGLPFFEIFVDAPLNICESRDVKGLYKRARAGEIKGFTGIDSDYEKPETPERVLKTNLSTVSDCVHQVVELLQEQNIVPYTIIKDIHELFVPENKLDHVRAEAETLPSLSITKLDLQWVQVLSEGWATPLKGFMREKEYLQVMHFDTLLDDGVINMSIPIVLPVSAEDKTRLEGCSKFVLAHGGRRVAILRDAEFYEHRKEERCSRVWGTTCTKHPHIKMVMESGDWLVGGDLQVLEKIRWNDGLDQYRLTPLELKQKCKEMNADAVFAFQLRNPVHNGHALLMQDTCRRLLERGYKHPVLLLHPLGGWTKDDDVPLDWRMKQHAAVLEEGVLDPKSTIVAIFPSPMLYAGPTEVQWHCRSRMIAGANFYIVGRDPAGMPHPETKKDLYEPTHGGKVLSMAPGLTSVEIIPFRVAAYNKAKKAMDFYDPARHNEFDFISGTRMRKLAREGENPPDGFMAPKAWKVLTDYYRSLEKN
ATP varied 0.125-4 mM, Na2SO4 4 mM
  S50 for ATP (ATP concentration at which 50% maximal velocity was achieved): 0.70 mM
[1]
  Hill coefficient, ATP: 5.4 ± 0.1
  S50 for ATP (ATP concentration at which 50% maximal velocity was achieved): 0.70 ± 0.01 mM
Apparent Km, Na2SO4 varied 0.125-16 mM, ATP 1 mM
  Km: 870 µM
ratio, wild type = 100, ATP as varied substrate
  Vmax/S50, ATP: 100
Relative Vmax, wild type = 100, ATP as varied substrate
  Vmax, ATP: 100
Relative Vmax, wild type = 100, Na2SO4 as varied substrate
  Vmax, Na2SO4: 100
